In article doi:10.1101/2024.07.08.602551:

Legend:
[1] = target: human Twisted gastrulation (residues Cys26-Phe223) (human) (UniProt Q9GZX9); assay: SPR
[2] = target: human Twisted gastrulation Leu107Ala (human) (UniProt Q9GZX9); assay: SPR
Sequence of human Twisted gastrulation Leu107Ala (human) (Q9GZX9 26-223 L107A): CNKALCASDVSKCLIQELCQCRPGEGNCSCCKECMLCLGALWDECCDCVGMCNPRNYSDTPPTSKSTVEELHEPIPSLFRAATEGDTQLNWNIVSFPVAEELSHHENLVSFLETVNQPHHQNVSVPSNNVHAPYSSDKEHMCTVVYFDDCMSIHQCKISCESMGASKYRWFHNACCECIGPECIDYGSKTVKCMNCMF

Sequence of human Twisted gastrulation (residues Cys26-Phe223) (human) (Q9GZX9 26-223): as the sequence (Q9GZX9 26-223 L107A) above, with A82L counted along it

With “human CHRDL2 (Arg24-Thr429) (natural protein)” the Kd [1] was 5 nM and the Kd [2] was 11 nM.
